This note sets out measurements from publication doi:10.1101/2023.03.20.533423 (bioRxiv, 2023).

This assay deals with T1, M. tb ParB with C-terminal 6xHis-tag (M. tuberculosis, UniProt P9WIJ9 1-344).
T1 sequence: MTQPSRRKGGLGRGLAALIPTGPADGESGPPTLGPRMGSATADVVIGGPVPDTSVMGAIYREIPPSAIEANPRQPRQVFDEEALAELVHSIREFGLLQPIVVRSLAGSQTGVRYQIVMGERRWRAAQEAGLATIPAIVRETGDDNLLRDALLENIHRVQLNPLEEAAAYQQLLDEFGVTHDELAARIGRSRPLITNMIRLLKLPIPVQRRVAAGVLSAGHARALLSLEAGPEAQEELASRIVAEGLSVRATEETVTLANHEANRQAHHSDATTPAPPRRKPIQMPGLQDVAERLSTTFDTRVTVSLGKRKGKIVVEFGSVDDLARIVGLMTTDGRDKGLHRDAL
Description: pull-down.

B1: GST-Rv1708 (natural protein)
chain: MPAGLPGQASVAVRLSCDVPPDARHHEPRPGMTDHPDTGNGIGLTGRPPRAIPDPAPRSSHGPAKVIAMCNQKGGVGKTTSTINLGAALGEYGRRVLLVDMDPQGALSAGLGVPHYELDKTIHNVLVEPRVSIDDVLIHSRVKNMDLVPSNIDLSAAEIQLVNEVGREQTLARALYPVLDRYDYVLIDCQPSLGLLTVNGLACTDGVIIPTECEFFSLRGLALLTDTVDKVRDRLNPKLDISGILITRYDPRTVNSREVMARVVERFGDLVFDTVITRTVRFPETSVAGEPITTWAPKSAGALAYRALARELIDRFGM
Turning to B1, the binding result is given as “binds”.
